{"source": "paper PMC5972394", "target": "Mycobacterium thermoresistible (Mth) IMPDH ΔCBS (Mycobacterium thermoresistible)", "assay": "crystal structure"}
{"substance": "Mycobacterium thermoresistible (Mth) IMPDH ΔCBS (enzyme)", "values": [{"measurement": "stoichiometry N", "result": 4}]}
